Measured values as given in paper PMC10403546 (Nature Communications, 2023).

B1: bNAb F6 Fab (for SPR) (Fab, V domains shown)
VH: QVQLQQWGTGLLKPSETLSLTCAVYGVSLRGYYWTWIRQSPKKGLEWIGEIDEIGRTKYSQSLRSRATLSIDTSKKQFSLRLTSVTAADMATYYCARWRLMMVDEVTRHGMDVWSQGTMVTVSS
VL: DIVMTQSPLSLSVAPGEAASISCRSTQSLLNRNGDNYLEWYLRRPGRSPQLLIYLGSERALGVPDRFSGSGSGRDFTLKISRVEAQDVGTYYCLQTRQGAFTFGQGTKLEIK
B2: bNAb 8ANC195 Fab (for SPR) (Fab, V domains shown)
VH: QIHLVQSGTEVKKPGSSVTVSCKAYGVNTFGLYAVNWVRQAPGQSLEYIGQIWRWKSSASHHFRGRVLISAVDLTGSSPPISSLEIKDLTSDDTAVYFCTTTSTYDKWSGLHHDGVMAFSSWGQGTLISVSA
VL: DIQMTQSPSTLSASIGDTVRISCRASQSITGNWVAWYQQRPGKAPRLLIYRGAALLGGVPSRFSGSAAGTDFTLTIGNLQAEDFGTFYCQQYDTYPGTFGQGTKVEVK

Tests used:
Test in all cases: SPR
Details in all cases: both partners purified
[1] = target: T1, Q769 UFO (subtype A Env of Q769_d22) (HIV-1 Q769_d22 (subtype A), UniProt Q8JDJ1, stabilised)
T1 construct: source: FreeStyle 293F, transient transfection (PEI), purified (GNL resin, SEC)

[2] = target: T2, X18 UFO (CRF01_AE Env), wild type, for SPR (HIV-1 BJOX018000.e12 (X18, CRF01_AE), stabilised)
T2 construct: source: FreeStyle 293F, transient transfection (PEI), purified (GNL resin, SEC)

[3] = target: T3, X18 SOSIP-His (CRF01_AE Env trimer in SOSIP design) (HIV-1 BJOX018000.e12 (X18, CRF01_AE), UniProt A0A0E3EAY4, stabilised)
T3 construct: copies: 3 + 3

[4] = target: T4, X16 SOSIP-His (CRF07_BC Env trimer in SOSIP design) (HIV-1 BJOX016000.e15 (X16, CRF07_BC), UniProt A0A0E3EAD6, stabilised)
T4 construct: copies: 3 + 3

[5] = target: T5, BG505 SOSIP-His (subtype A Env trimer) (HIV-1 BG505 (subtype A), UniProt Q2N0S6, stabilised)
T5 construct: copies: 3 + 3

Row | Binder | binding result [1] | Kd [2] [nM] | binding result [3] | binding result [4] | binding result [5]
1 | B1 | binds | 0.041 |  |  | 
2 | B2 |  |  | binds | binds | binds
